# Laboratory results from publication PMC8512704, “A Uniform Benchmark for Testing SsrA-Derived Degrons in the Escherichia coli ClpXP Degradation Pathway” (Molecules, 2021).
# No end group written: not given here.
# T1: SspB (Escherichia coli, UniProt P0AFZ3 1-165)
# T1 chain: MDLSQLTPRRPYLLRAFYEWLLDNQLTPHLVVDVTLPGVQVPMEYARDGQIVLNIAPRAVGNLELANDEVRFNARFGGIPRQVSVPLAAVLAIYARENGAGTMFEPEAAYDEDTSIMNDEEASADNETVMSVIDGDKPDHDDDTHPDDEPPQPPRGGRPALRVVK
# B1: SspB (natural protein, Escherichia coli, UniProt P0AFZ3 1-165, looked up)
# chain: MDLSQLTPRRPYLLRAFYEWLLDNQLTPHLVVDVTLPGVQVPMEYARDGQIVLNIAPRAVGNLELANDEVRFNARFGGIPRQVSVPLAAVLAIYARENGAGTMFEPEAAYDEDTSIMNDEEASADNETVMSVIDGDKPDHDDDTHPDDEPPQPPRGGRPALRVVK
# Experiments:
# SspB [1] = biological target: B1; assay: MST; 50 nM eGFP-degron (eGFP fluorescence), SspB titrated 3.72 nM to 122 μM; 25 mM Hepes pH 7.6, 200 mM KCl, 5 mM MgCl2, 10% glycerol, 0.05% Tween 20; 15 min at RT; measured at 20 °C, Monolith NT.115; details: both partners purified
# SspB [2] = biological target: T1, SspB; assay: MST
# ClpX = ClpX (Escherichia coli, UniProt P0A6H1 1-424); assay: cell-based or functional assay
# Sequence of ClpX (P0A6H1 whole entry): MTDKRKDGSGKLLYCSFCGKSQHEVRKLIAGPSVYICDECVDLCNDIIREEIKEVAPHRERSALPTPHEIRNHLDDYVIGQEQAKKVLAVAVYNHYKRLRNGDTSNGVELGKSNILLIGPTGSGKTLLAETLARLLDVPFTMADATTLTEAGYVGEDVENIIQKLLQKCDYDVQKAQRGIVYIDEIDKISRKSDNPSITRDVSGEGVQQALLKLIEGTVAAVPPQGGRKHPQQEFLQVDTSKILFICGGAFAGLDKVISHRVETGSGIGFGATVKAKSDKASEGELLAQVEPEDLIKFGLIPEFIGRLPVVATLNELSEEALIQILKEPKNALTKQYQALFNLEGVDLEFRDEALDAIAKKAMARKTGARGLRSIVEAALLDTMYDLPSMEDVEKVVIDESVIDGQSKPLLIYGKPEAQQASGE
# SspB [3] = biological target: T1, SspB; assay: MST
Binder,Kd (SspB [1]),Ka (SspB [2]),"ClpX ATPase activity (NADH-coupled assay, 0.08 µM ClpX6, 30 °C) with increasing SspB2 (0-27.4 μM): increase of reaction velocity (ClpX)",Kd (SspB [3]),binding result (SspB [1])
"eGFP-AANDENYSENYADAS (ssrA tag variant with the SENY linker and the C-terminal ALAA replaced by ADAS, appended to the C-terminus of eGFP; Degron fused to the C-terminus of His-TEV-eGFP; source: E. coli ΔclpP Keio strain (JW0427) (earlier Top10), pBAD, purified (HisTrap and Superdex200 in tandem); not shown: His-TEV, N-terminal, kept; eGFP, N-terminal, kept) [eGFP-AANDENYSENYADAS]",300 nM,3.37e+06 M⁻¹,–,–,–
"eGFP-AANDENYALAA (ssrA tag of Escherichia coli, the 11 amino acids added by trans-translation (tmRNA), appended to the C-terminus of eGFP; Degron fused to the C-terminus of His-TEV-eGFP; also called eGFP-ssrA; eGFP-SsrA; source: E. coli ΔclpP Keio strain (JW0427) (earlier Top10), pBAD, purified (HisTrap and Superdex200 in tandem); not shown: His-TEV, N-terminal, kept; eGFP, N-terminal, kept) [eGFP-AANDENYALAA]",80 nM,1.32e+07 M⁻¹,–,–,–
B1,–,–,~2 fold,–,–
"eGFP-AANDENYSENY (AANDENY motif of the ssrA tag followed by the SENY linker, appended to the C-terminus of eGFP; Degron fused to the C-terminus of His-TEV-eGFP; source: E. coli ΔclpP Keio strain (JW0427) (earlier Top10), pBAD, purified (HisTrap and Superdex200 in tandem); not shown: His-TEV, N-terminal, kept; eGFP, N-terminal, kept) [eGFP-AANDENYSENY]",100 nM,9.78e+06 M⁻¹,–,–,–
"eGFP-AANDENYADAS (ssrA tag variant with the C-terminal ALAA replaced by ADAS, appended to the C-terminus of eGFP; Degron fused to the C-terminus of His-TEV-eGFP; source: E. coli ΔclpP Keio strain (JW0427) (earlier Top10), pBAD, purified (HisTrap and Superdex200 in tandem); not shown: His-TEV, N-terminal, kept; eGFP, N-terminal, kept) [eGFP-AANDENYADAS]",330 nM,3.02e+06 M⁻¹,–,–,–
"eGFP-AANDENYAANDENY (two repeats of the AANDENY motif of the ssrA tag, appended to the C-terminus of eGFP; Degron fused to the C-terminus of His-TEV-eGFP; source: E. coli ΔclpP Keio strain (JW0427) (earlier Top10), pBAD, purified (HisTrap and Superdex200 in tandem); not shown: His-TEV, N-terminal, kept; eGFP, N-terminal, kept) [eGFP-AANDENYAANDENY]",–,9.56e+06 M⁻¹,–,120 nM,binds
"eGFP-AANDENYSENYALAA (ssrA tag variant with the SENY linker between AANDENY and ALAA, appended to the C-terminus of eGFP; Degron fused to the C-terminus of His-TEV-eGFP; source: E. coli ΔclpP Keio strain (JW0427) (earlier Top10), pBAD, purified (HisTrap and Superdex200 in tandem); not shown: His-TEV, N-terminal, kept; eGFP, N-terminal, kept) [eGFP-AANDENYSENYALAA]",–,7.8e+06 M⁻¹,–,140 nM,binds
"eGFP-AANDENY (AANDENY motif of the E. coli ssrA tag, appended to the C-terminus of eGFP; Degron fused to the C-terminus of His-TEV-eGFP; source: E. coli ΔclpP Keio strain (JW0427) (earlier Top10), pBAD, purified (HisTrap and Superdex200 in tandem); not shown: His-TEV, N-terminal, kept; eGFP, N-terminal, kept) [eGFP-AANDENY]",–,1.08e+07 M⁻¹,–,110 nM,binds
